Measurements taken from paper PMC6550315.
Read-outs that look alike come from different tables or passages of the source. Blank lines part the entries; values can stand above or below the molecule they belong to.

Tests used:
[1] = molecular target: Kif7DM (dimeric, non GFP-tagged Kif7, aa. 1–543), held on an anti-penta-HIS biosensor (human) (UniProt Q2M1P5); assay: BLI
[2] = molecular target: Kif7DM (dimeric, non GFP-tagged Kif7, aa. 1–543), held on an anti-penta-HIS biosensor (human) (UniProt Q2M1P5); assay: BLI; remark: listed apart in the source
[3] = molecular target: Kif7DM (dimeric, non GFP-tagged Kif7, aa. 1–543), held on an anti-penta-HIS biosensor (human) (UniProt Q2M1P5); assay: BLI; remark: listed apart in the source
[4] = molecular target: GTP-polymerized Taxol-stabilized microtubules (bovine tubulin) (bovine) (UniProt Q6B856); assay: co-sedimentation
[5] = molecular target: GMPCPP+GDP microtubule cap (bovine (lab-purified from bovine brain; Cytoskeleton tubulin used interchangeably)) (UniProt Q6B856); assay: TIRF microscopy
[6] = molecular target: GDP-tubulin microtubule segment (GTP►GDP growth) (bovine (lab-purified from bovine brain; Cytoskeleton tubulin used interchangeably)) (UniProt Q6B856); assay: TIRF microscopy
[7] = molecular target: GMPCPP-stabilized microtubules (GMPCPP-bound microtubule seeds) (bovine (lab-purified from bovine brain; Cytoskeleton tubulin used interchangeably)) (UniProt Q6B856); assay: TIRF microscopy
[8] = molecular target: GMPCPP+GDP microtubule cap (bovine (lab-purified from bovine brain; Cytoskeleton tubulin used interchangeably)) (UniProt Q6B856); assay: TIRF microscopy; remark: listed apart in the source
[9] = molecular target: GDP-tubulin microtubule segment (GTP►GDP growth) (bovine (lab-purified from bovine brain; Cytoskeleton tubulin used interchangeably)) (UniProt Q6B856); assay: TIRF microscopy; remark: listed apart in the source
[10] = molecular target: GMPCPP-stabilized microtubules (GMPCPP-bound microtubule seeds) (bovine (lab-purified from bovine brain; Cytoskeleton tubulin used interchangeably)) (UniProt Q6B856); assay: TIRF microscopy; remark: listed apart in the source
[11] = molecular target: GTPγS microtubule segment (bovine (lab-purified from bovine brain; Cytoskeleton tubulin used interchangeably)) (UniProt Q6B856); assay: TIRF microscopy
[12] = molecular target: GMPCPP-stabilized microtubules (GMPCPP-bound microtubule seeds) (bovine (lab-purified from bovine brain; Cytoskeleton tubulin used interchangeably)) (UniProt Q6B856); assay: TIRF microscopy; remark: listed apart in the source
[13] = molecular target: GTP-polymerized Taxol-stabilized microtubules (bovine tubulin) (bovine) (UniProt Q6B856); assay: co-sedimentation; remark: listed apart in the source
[14] = molecular target: GMPCPP-stabilized microtubules (GMPCPP-bound microtubule seeds) (bovine (lab-purified from bovine brain; Cytoskeleton tubulin used interchangeably)) (UniProt Q6B856); assay: TIRF microscopy; remark: listed apart in the source
[15] = molecular target: GMPCPP+GDP microtubule cap (bovine (lab-purified from bovine brain; Cytoskeleton tubulin used interchangeably)) (UniProt Q6B856); assay: TIRF microscopy; remark: listed apart in the source
[16] = molecular target: GDP-tubulin microtubule segment (GTP►GDP growth) (bovine (lab-purified from bovine brain; Cytoskeleton tubulin used interchangeably)) (UniProt Q6B856); assay: TIRF microscopy; remark: listed apart in the source
[17] = molecular target: GMPCPP-stabilized microtubules (GMPCPP-bound microtubule seeds) (bovine (lab-purified from bovine brain; Cytoskeleton tubulin used interchangeably)) (UniProt Q6B856); assay: TIRF microscopy; remark: listed apart in the source
[18] = molecular target: GMPCPP+GDP microtubule cap (bovine (lab-purified from bovine brain; Cytoskeleton tubulin used interchangeably)) (UniProt Q6B856); assay: TIRF microscopy; remark: listed apart in the source
[19] = molecular target: GDP-tubulin microtubule segment (GTP►GDP growth) (bovine (lab-purified from bovine brain; Cytoskeleton tubulin used interchangeably)) (UniProt Q6B856); assay: TIRF microscopy; remark: listed apart in the source
[20] = molecular target: GMPCPP-stabilized microtubules (GMPCPP-bound microtubule seeds) (bovine (lab-purified from bovine brain; Cytoskeleton tubulin used interchangeably)) (UniProt Q6B856); assay: TIRF microscopy; remark: listed apart in the source
[21] = molecular target: GTP-polymerized Taxol-stabilized microtubules (bovine tubulin) (bovine) (UniProt Q6B856); assay: co-sedimentation; remark: listed apart in the source
[22] = molecular target: GTP-polymerized Taxol-stabilized microtubules (bovine tubulin) (bovine) (UniProt Q6B856); assay: co-sedimentation; remark: listed apart in the source

Kd [1]: 8.1 µM
Kd [2]: 1640 nM
Kd [3]: 4.98 µM
Molecule: soluble tubulin (α-β-tubulin heterodimer) (from UniProt Q6B856 1-445) (complex)

Kd [4]: 850 nM
Molecule: Kif7_(DM-L8)^KHC-GFP (Kif7 1–543 with loop L8 replaced by kinesin-1 L8) (from UniProt Q2M1P5 1-543) (domain or fragment)

GFP fluorescence intensity per pixel [5]: 401
GFP fluorescence intensity per pixel [6]: 216
GFP fluorescence intensity per pixel [7]: 693
GFP fluorescence intensity per pixel [8]: 37.1
GFP fluorescence intensity per pixel [9]: 8.6
GFP fluorescence intensity per pixel [10]: 53
GFP fluorescence intensity per pixel [11]: 511
GFP fluorescence intensity at curvature |κ0|, 10 nM Kif7DM-GFP [12]: 164
GFP fluorescence intensity at curvature |κ0|, 50 nM Kif7DM-GFP [12]: 278
GFP fluorescence intensity at curvature |κ1|, 10 nM Kif7DM-GFP [12]: 168
GFP fluorescence intensity at curvature |κ1|, 50 nM Kif7DM-GFP [12]: 285
GFP fluorescence intensity at curvature |κ2|, 10 nM Kif7DM-GFP [12]: 168
GFP fluorescence intensity at curvature |κ2|, 50 nM Kif7DM-GFP [12]: 280
GFP fluorescence intensity at curvature |κ3|, 10 nM Kif7DM-GFP [12]: 164
GFP fluorescence intensity at curvature |κ3|, 50 nM Kif7DM-GFP [12]: 283
GFP fluorescence intensity per pixel [12]: 218
Kd [13]: 810 nM
Kd [4]: 540 nM
GFP fluorescence intensity per pixel [14]: 836
GFP fluorescence intensity per pixel [15]: 338
GFP fluorescence intensity per pixel [16]: 208
GFP fluorescence intensity per pixel [17]: 592
GFP fluorescence intensity per pixel [18]: 80.8
GFP fluorescence intensity per pixel [19]: 14.1
GFP fluorescence intensity per pixel [20]: 202
Kd [21]: 430 nM
Kd [22]: 780 nM
B1: Kif7DM-GFP (dimeric Kif7, aa. 1–543, C-terminal GFP) (domain or fragment)
chain: MGLEAQRLPGAEEAPVRVALRVRPLLPKELLHGHQSCLQVEPGLGRVTLGRDRHFGFHVVLAEDAGQEAVYQACVQPLLEAFFEGFNATVFAYGQTGSGKTYTMGEASVASLLEDEQGIVPRAMAEAFKLIDENDLLDCLVHVSYLEVYKEEFRDLLEVGTASRDIQLREDERGNVVLCGVKEVDVEGLDEVLSLLEMGNAARHTGATHLNHLSSRSHTVFTVTLEQRGRAPSRLPRPAPGQLLVSKFHFVDLAGSERVLKTGSTGERLKESIQINSSLLALGNVISALGDPQRRGSHIPYRDSKITRILKDSLGGNAKTVMIACVSPSSSDFDETLNTLNYASRAQNIRNRATVNWRPEAERPPEETASGARGPPRHRSETRIIHRGRRAPGPATASAAAAMRLGAECARYRACTDAAYSLLRELQAEPGLPGAAARKVRDWLCAVEGERSALSSASGPDSGIESASVEDQAAQGAGGRKEDEGAQQLLTLQNQVARLEEENRDFLAALEDAMEQYKLQSDRLREQQEEMVELRLRLELVRP
